Assay results from article PMC9482650, “Quantitative fragmentomics allow affinity mapping of interactomes” (Nature Communications, 2022).

T1: GRIP1_2, Q9Y3R0
T1 sequence (Q9Y3R0 145-248, limits assumed, looked up): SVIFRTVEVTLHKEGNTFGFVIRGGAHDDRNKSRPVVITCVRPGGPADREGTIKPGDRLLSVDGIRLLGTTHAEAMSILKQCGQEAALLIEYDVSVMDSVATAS

T2: LNX2_2, Q8N448
T2 sequence (Q8N448 334-432, limits assumed, looked up): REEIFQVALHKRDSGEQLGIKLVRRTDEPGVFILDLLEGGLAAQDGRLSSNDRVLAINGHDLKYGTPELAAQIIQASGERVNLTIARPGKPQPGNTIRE

T3: CARD11, Q9BXL7
T3 sequence (Q9BXL7 662-765, limits assumed, looked up): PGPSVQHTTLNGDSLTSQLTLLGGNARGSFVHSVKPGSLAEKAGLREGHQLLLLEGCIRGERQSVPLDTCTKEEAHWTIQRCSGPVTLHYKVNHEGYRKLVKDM

T4: APBA3_1, O96018
T4 sequence (O96018 389-490, limits assumed, looked up): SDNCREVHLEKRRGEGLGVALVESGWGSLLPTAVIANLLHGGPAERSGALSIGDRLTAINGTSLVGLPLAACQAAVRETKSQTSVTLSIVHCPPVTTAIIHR

T5: LIN7A, O14910
T5 sequence (O14910 103-200, limits assumed, looked up): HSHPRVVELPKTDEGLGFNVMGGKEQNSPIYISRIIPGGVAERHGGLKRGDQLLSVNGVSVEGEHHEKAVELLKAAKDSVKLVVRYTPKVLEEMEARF

T6: MPDZ_12, O75970
T6 sequence (O75970 1857-1958, limits assumed, looked up): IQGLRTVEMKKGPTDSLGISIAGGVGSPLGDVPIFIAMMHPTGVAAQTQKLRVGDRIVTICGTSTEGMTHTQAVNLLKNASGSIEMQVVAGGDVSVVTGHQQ

T7: DVL3, Q92997
T7 sequence (Q92997 244-331, limits assumed, looked up): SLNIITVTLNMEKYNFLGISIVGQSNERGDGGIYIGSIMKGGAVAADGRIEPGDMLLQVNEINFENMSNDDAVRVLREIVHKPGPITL

T8: PDZRN3_1, Q9UPQ7
T8 sequence (Q9UPQ7 244-349, limits assumed, looked up): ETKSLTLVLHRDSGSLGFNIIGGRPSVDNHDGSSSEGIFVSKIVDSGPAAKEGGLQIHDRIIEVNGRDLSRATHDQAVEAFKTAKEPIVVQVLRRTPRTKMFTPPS

T9: DFNB31_1, Q9P202
T9 sequence (Q9P202 135-233, limits assumed, looked up): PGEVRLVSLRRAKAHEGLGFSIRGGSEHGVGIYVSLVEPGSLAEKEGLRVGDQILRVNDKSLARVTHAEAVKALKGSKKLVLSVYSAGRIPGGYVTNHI

T10: HTRA3, P83110
T10 sequence (P83110 354-453, limits assumed, looked up): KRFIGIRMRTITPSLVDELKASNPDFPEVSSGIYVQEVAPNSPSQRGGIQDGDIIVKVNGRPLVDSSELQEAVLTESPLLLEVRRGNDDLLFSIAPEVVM

T11: PDZD7_3, Q9H5P4
T11 sequence (Q9H5P4 857-944, limits assumed, looked up): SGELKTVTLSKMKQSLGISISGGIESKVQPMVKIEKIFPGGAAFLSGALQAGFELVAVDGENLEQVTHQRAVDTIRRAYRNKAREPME


Assays:
Test in all cases: holdup assay
Parameters in all cases: key: below the threshold = too weak to quantify, mostly under pKd 3.1 to 4
Conditions in all cases: plain residues with an end cap or a label only (N-terminal biotin on a linker: ado-ado)
GRIP1_2, Q9Y3R0 = molecular target: T1, GRIP1_2, Q9Y3R0
LNX2_2, Q8N448 = molecular target: T2, LNX2_2, Q8N448
CARD11, Q9BXL7 = molecular target: T3, CARD11, Q9BXL7
APBA3_1, O96018 = molecular target: T4, APBA3_1, O96018
GRIP2_3, Q9C0E4 = molecular target: GRIP2_3, Q9C0E4
Chain of GRIP2_3, Q9C0E4 (Q9C0E4 238-339): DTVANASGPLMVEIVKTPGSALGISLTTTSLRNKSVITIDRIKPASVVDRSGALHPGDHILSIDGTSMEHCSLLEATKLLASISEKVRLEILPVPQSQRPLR

LIN7A, O14910 = molecular target: T5, LIN7A, O14910
GRIP2_7, Q9C0E4 = molecular target: GRIP2_7, Q9C0E4
Chain of GRIP2_7, Q9C0E4 (Q9C0E4 934-1023): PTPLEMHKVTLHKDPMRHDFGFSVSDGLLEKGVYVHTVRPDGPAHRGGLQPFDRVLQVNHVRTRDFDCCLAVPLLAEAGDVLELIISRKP

Inadl_1, Q8NI35 = molecular target: Inadl_1, Q8NI35
Chain of Inadl_1, Q8NI35 (Q8NI35 113-229): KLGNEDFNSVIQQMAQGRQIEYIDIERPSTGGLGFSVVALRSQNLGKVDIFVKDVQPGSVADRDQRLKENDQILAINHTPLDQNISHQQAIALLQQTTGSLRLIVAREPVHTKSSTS

DLG2_2, Q15700 = molecular target: DLG2_2, Q15700
Chain of DLG2_2, Q15700 (Q15700 189-283): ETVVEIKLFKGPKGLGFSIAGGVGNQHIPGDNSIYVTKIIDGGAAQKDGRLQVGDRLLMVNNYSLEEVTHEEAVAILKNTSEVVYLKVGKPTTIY

MPDZ_12, O75970 = molecular target: T6, MPDZ_12, O75970
GORASP2, Q9H8Y8 = molecular target: GORASP2, Q9H8Y8
NHERF4_4, Q86UT5 = molecular target: NHERF4_4, Q86UT5
Chain of NHERF4_4, Q86UT5 (Q86UT5 464-550): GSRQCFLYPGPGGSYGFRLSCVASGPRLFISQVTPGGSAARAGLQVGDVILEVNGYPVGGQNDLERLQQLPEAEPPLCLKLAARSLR

DVL3, Q92997 = molecular target: T7, DVL3, Q92997
MAGI1_1, Q96QZ7 = molecular target: MAGI1_1, Q96QZ7
Chain of MAGI1_1, Q96QZ7 (Q96QZ7 1-106): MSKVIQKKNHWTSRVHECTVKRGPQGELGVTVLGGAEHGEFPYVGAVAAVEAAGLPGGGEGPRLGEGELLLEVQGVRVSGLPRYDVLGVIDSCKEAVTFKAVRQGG

GRIP2_6, Q9C0E4 = molecular target: GRIP2_6, Q9C0E4
Chain of GRIP2_6, Q9C0E4 (Q9C0E4 648-740): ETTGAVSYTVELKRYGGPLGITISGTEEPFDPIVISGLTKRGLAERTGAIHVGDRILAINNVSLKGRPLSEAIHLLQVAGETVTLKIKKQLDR

PDZRN3_1, Q9UPQ7 = molecular target: T8, PDZRN3_1, Q9UPQ7
DFNB31_1, Q9P202 = molecular target: T9, DFNB31_1, Q9P202
Inadl_4, Q8NI35 = molecular target: Inadl_4, Q8NI35
Chain of Inadl_4, Q8NI35 (Q8NI35 547-651): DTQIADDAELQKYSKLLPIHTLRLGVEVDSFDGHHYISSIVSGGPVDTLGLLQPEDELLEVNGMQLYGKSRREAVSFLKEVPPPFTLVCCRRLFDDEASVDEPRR

MAGI2_6, Q86UL8 = molecular target: MAGI2_6, Q86UL8
Chain of MAGI2_6, Q86UL8 (Q86UL8 1141-1229): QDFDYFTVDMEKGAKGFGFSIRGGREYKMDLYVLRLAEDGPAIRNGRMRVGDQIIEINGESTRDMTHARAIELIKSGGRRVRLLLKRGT

Inadl_9, Q8NI35 = molecular target: Inadl_9, Q8NI35
Chain of Inadl_9, Q8NI35 (Q8NI35 1530-1615): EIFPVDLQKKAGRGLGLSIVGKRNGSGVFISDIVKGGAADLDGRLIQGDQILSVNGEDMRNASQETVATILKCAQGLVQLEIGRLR

HTRA3, P83110 = molecular target: T10, HTRA3, P83110
SCRIB_3, Q14160 = molecular target: SCRIB_3, Q14160
Chain of SCRIB_3, Q14160 (Q14160 999-1103): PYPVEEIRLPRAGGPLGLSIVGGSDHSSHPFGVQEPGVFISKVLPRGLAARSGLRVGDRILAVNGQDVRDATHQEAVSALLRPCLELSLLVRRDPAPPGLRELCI

TJP2_1, Q9UDY2 = molecular target: TJP2_1, Q9UDY2
Chain of TJP2_1, Q9UDY2 (Q9UDY2 24-128): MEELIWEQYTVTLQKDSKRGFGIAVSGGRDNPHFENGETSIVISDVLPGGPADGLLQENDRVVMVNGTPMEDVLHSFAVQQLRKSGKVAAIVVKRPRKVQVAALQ

MAGI2_5, Q86UL8 = molecular target: MAGI2_5, Q86UL8
Chain of MAGI2_5, Q86UL8 (Q86UL8 915-1017): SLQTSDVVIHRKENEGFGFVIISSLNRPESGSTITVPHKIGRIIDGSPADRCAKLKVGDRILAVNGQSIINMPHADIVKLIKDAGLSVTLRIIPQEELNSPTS

GORASP1, Q9BQQ3 = molecular target: GORASP1, Q9BQQ3
Chain of GORASP1, Q9BQQ3 (Q9BQQ3 1-208): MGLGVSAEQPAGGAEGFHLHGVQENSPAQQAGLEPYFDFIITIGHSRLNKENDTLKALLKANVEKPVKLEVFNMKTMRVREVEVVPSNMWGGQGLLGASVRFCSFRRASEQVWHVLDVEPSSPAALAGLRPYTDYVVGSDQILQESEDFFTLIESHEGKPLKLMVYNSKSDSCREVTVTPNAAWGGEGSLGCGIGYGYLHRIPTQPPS

PDZD7_3, Q9H5P4 = molecular target: T11, PDZD7_3, Q9H5P4
LAP2, Q96RT1 = molecular target: LAP2, Q96RT1
Chain of LAP2, Q96RT1 (Q96RT1 other isoform, or with tags, fused parts or gaps): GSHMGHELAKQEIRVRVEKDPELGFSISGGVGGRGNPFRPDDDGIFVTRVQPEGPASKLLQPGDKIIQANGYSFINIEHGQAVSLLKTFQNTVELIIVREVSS

Binder | pKd (GRIP1_2, Q9Y3R0) | pKd (LNX2_2, Q8N448) | pKd (CARD11, Q9BXL7) | pKd (APBA3_1, O96018) | pKd (GRIP2_3, Q9C0E4) | pKd (LIN7A, O14910) | pKd (GRIP2_7, Q9C0E4) | pKd (Inadl_1, Q8NI35) | pKd (DLG2_2, Q15700) | pKd (MPDZ_12, O75970) | pKd (GORASP2, Q9H8Y8) | pKd (NHERF4_4, Q86UT5) | pKd (DVL3, Q92997) | pKd (MAGI1_1, Q96QZ7) | pKd (GRIP2_6, Q9C0E4) | pKd (PDZRN3_1, Q9UPQ7) | pKd (DFNB31_1, Q9P202) | pKd (Inadl_4, Q8NI35) | pKd (MAGI2_6, Q86UL8) | pKd (Inadl_9, Q8NI35) | also measured
DHLGGGGESM [TNRC6A, Q8NDV7] | below the threshold | below the threshold | below the threshold | below the threshold | below the threshold | below the threshold | below the threshold | below the threshold | below the threshold | below the threshold | below the threshold | below the threshold | below the threshold | below the threshold | below the threshold | below the threshold | below the threshold | below the threshold | below the threshold | below the threshold | pKd (HTRA3, P83110): below the threshold; pKd (SCRIB_3, Q14160): below the threshold; pKd (TJP2_1, Q9UDY2): below the threshold; pKd (MAGI2_5, Q86UL8): below the threshold; pKd (GORASP1, Q9BQQ3): below the threshold; pKd (PDZD7_3, Q9H5P4): below the threshold; pKd (LAP2, Q96RT1): 3.74
NLQEHSTTSV [RSBN1, Q5VWQ0] | below the threshold | 4.05 | below the threshold | below the threshold | below the threshold | below the threshold | below the threshold | below the threshold | 3.67 | below the threshold | below the threshold | below the threshold | below the threshold | below the threshold | below the threshold | below the threshold | 3.72 | below the threshold | 4.16 | below the threshold | pKd (HTRA3, P83110): below the threshold; pKd (SCRIB_3, Q14160): 3.63; pKd (TJP2_1, Q9UDY2): below the threshold; pKd (MAGI2_5, Q86UL8): 3.48; pKd (GORASP1, Q9BQQ3): below the threshold; pKd (PDZD7_3, Q9H5P4): 4; pKd (LAP2, Q96RT1): 3.72
REKKFFCTIL [GNG4, P50150] | 4.1 | 4.06 | 3.54 | below the threshold | below the threshold | 3.6 | below the threshold | below the threshold | 3.97 | 3.62 | 5.05 | 3.76 | 4.33 | below the threshold | 4.57 | 4.14 | 4.1 | below the threshold | 4 | below the threshold | pKd (HTRA3, P83110): 3.78; pKd (SCRIB_3, Q14160): 4.91; pKd (TJP2_1, Q9UDY2): 4.93; pKd (MAGI2_5, Q86UL8): 4.86; pKd (GORASP1, Q9BQQ3): 5.07; pKd (PDZD7_3, Q9H5P4): 5.44; pKd (LAP2, Q96RT1): 3.79
IPGKEFDTPL [PLCB1, Q9NQ66] | below the threshold | below the threshold | below the threshold | below the threshold | below the threshold | below the threshold | below the threshold | below the threshold | below the threshold | below the threshold | below the threshold | below the threshold | below the threshold | below the threshold | below the threshold | 4.33 | 4.03 | below the threshold | 3.49 | below the threshold | pKd (HTRA3, P83110): below the threshold; pKd (SCRIB_3, Q14160): 4.3; pKd (TJP2_1, Q9UDY2): below the threshold; pKd (MAGI2_5, Q86UL8): below the threshold; pKd (GORASP1, Q9BQQ3): below the threshold; pKd (PDZD7_3, Q9H5P4): 3.8; pKd (LAP2, Q96RT1): 3.58
ALPLPQSSTC [IGF1R, P08069] | below the threshold | 3.55 | below the threshold | below the threshold | below the threshold | below the threshold | below the threshold | below the threshold | below the threshold | below the threshold | below the threshold | below the threshold | below the threshold | below the threshold | below the threshold | below the threshold | below the threshold | below the threshold | below the threshold | below the threshold | pKd (HTRA3, P83110): 4.24; pKd (SCRIB_3, Q14160): below the threshold; pKd (TJP2_1, Q9UDY2): below the threshold; pKd (MAGI2_5, Q86UL8): below the threshold; pKd (GORASP1, Q9BQQ3): below the threshold; pKd (PDZD7_3, Q9H5P4): below the threshold; pKd (LAP2, Q96RT1): below the threshold
